Assay results from patent US20230391854A1 (Innovent, published 2023).

B1: P23-29 (antibody, V domains shown)
VH: QVQLQESGPGLVKPSETLSLTCTVSGDSISSSTYYWGWIRQPPGKGLEWIGSMYYGRSTYYNPSLKSRVTVSVDTSKNQLSLKVSSVTAADTAVYYCARHLGGVDYWGQGTLVTVSS
VL: DIQMTQSPSSLSASVGDRVTITCRASQGISNSLAWYQQEPGKAPKLLLYAASTLESGVPSRFSGSGSGADSTLTISSLQPEDFATYYCQQYYSASALTFGGGTKVEIK
notes: also called candidate antibody molecule P23-29
B2: P14-37 (antibody, V domains shown)
VH: EVQLVESGGGLVKPGGSLRLSCAASGFTFSNAWMSWVRQAPGKGLEWVGRIKRNSDGGTTDHAAPVTGRFIISRDDSKNTLYLQMNSLRTEDTAVYYCTTDLDTVVRRVVITDHDAFDIWGQGTMVTVSS
VL: DIQMTQSPSSLSASVGDRVTITCRASQSISSFLNWYQQKAGKAPKLLIYAASSLQSGVPSRFSGSGSGTDFSLTISNLQPEDFATYYCQQSYSTPSITFGQGTRLEIK
notes: also called candidate antibody molecule P14-37
B3: P15-16 (antibody, V domains shown)
VH: QVQLVESGGGLVQPGRSLTLSCAASGFTFDDYAMHWVRQAPGKGLEWVSGISWNSGTIDYADSVKGRFTISRDNAKNSLYLQMNSLRAEDTALYYCATLPRERAYSGYDRIFYTIDVWGQGTTVTVSS
VL: not shown
notes: also called candidate antibody molecule P15-16
B4: P14-44 (antibody, V domains shown)
VH: QVQLVQSGAEVKKPGASVKVSCKASGYIFTSYSMHWVRQAPGQGLEWMGTIKPSDDSTNYAQKFQGRVSMTRDTSTSTVYMELSSLRYEDTAVYYCAREARGYYDRSGYYHPGYFDYWGQGTLVTVSS
VL: QSVLTQPASVSGSPGQSITISCTGTSSDVGGYNFVSWYQQHPGKAPKLMIYEVSDRPSGVSSRFSGSKSGNTASLTISGLQAEDEADYYCFSYTTSTTWVFGGGTKLTVL
notes: also called candidate antibody molecule P14-44
B5: P5-22 (antibody, V domains shown)
VH: EVQLVESGGGLVKPGGSLRLSCAASGFTFRDYDIIWIRQAPGKGLEWVSYISRSGSTIYYSDSVRGRFTISRDNAKNSVYLQMNSLRAEDTAVYYCARDFGFEGPRMDVWGQGTTVTVSS
VL: DIQMTQSPSSLSASVGDRVTITCQASQDIKNYLNWYQQKPGKAPKLLIYDASNLETGVPSRFSGSGSGTDFTFTISSLQPEDIATYYCQQFDNLPITFGQGTRLEIK
notes: also called candidate antibody molecule P5-22
B6: P10-20 (antibody, V domains shown)
VH: QVQLVESGGGLVKPGGSLRLSCAASGFTFSDYYMSWIRQAPGKGLEWVSYISISSTYTNYADSVKGRFTISRDNAKNSLYLQMNSLRAEDTAVYYCVIAAAGKGHYYYGMDVWGQGTTVTVSS
VL: not shown
notes: also called candidate antibody molecule P10-20
B7: P3-11 (antibody, V domains shown)
VH: QVQLVESGGGLVQPGGSLRLSCAASGITVSSNYMSWVRQAPGKGLEWVSVIYSGGSTFYADPVKGRLTISRDNSKNTLYLQMNSVRVEDTAVYYCARGEGWELPFDYWGQGALVTVSS
VL: QSALTQPPSASGSPGQSVTISCTGTSSDVGGNKYVSWYQQHPGKAPKLIIYEVSKRPSGVPDRFSGSKSGNTASLTVSGLQAEDEADYHCSSYAGSNNLVFGGGTKLTVL
notes: also called candidate antibody molecule P3-11

Tests used:
[1] = target: Biotin-ncov RBD (KACTUS, COV-VM4BDB) (SARS-CoV-2, UniProt P0DTC2 319-537); assay: ELISA blocking assay: antibody titrated from 900 nM, blocks biotin-RBD (200 ng/mL) binding to coated ACE2-Fc
[2] = target: SARS-CoV-2 euvirus S protein (SARS-CoV-2, UniProt P0DTC2 14-1273); assay: cell-based or functional assay

Row | Binder | IC50 [1] | EC50, neutralization of SARS-CoV-2 euvirus infection of VERO-E6 cells (CPE, day 4) [2]
1 | B1 | 1.2 nM | 0.0488 µg/mL
2 | B2 | 1.14 nM | –
3 | B3 | 1.39 nM | –
4 | B4 | 0.863 nM | 0.708 µg/mL
5 | B5 | 1.08 nM | 0.00657 µg/mL
6 | B6 | 0.957 nM | ~0.0752 µg/mL
7 | B7 | 1.1 nM | 0.195 µg/mL
